Substitutions are numbered along the chain they refer to. Blank lines part the entries; values can stand above or below the binder they belong to.
Columns and labels:
Assay in all cases: indirect ELISA, antigen coated at 1 µg/ml
[1] = molecular target: T1, CRS (cysteinyl-tRNA synthetase) (UniProt P49589 1-748, limits assumed)
T1 sequence (looked up): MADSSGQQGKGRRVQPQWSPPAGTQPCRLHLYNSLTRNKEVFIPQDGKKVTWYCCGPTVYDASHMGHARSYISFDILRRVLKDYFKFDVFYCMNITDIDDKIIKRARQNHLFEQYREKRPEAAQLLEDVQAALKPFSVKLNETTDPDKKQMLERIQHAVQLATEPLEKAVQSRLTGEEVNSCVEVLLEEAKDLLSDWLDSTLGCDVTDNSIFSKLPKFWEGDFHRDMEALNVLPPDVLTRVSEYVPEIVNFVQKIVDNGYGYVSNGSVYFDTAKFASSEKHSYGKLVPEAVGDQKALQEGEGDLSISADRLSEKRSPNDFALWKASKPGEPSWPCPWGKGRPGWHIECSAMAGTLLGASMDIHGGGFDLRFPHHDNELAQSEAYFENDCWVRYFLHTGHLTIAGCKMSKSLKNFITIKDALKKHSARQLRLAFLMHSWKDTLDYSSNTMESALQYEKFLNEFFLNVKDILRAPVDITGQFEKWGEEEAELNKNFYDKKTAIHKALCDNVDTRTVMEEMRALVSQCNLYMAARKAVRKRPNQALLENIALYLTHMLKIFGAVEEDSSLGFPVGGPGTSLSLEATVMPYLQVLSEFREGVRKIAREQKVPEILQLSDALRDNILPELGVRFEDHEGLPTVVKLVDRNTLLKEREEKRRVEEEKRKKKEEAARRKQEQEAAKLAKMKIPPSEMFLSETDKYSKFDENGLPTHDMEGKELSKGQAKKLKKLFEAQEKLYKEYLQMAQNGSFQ

[2] = molecular target: T2, AIMP1 (aminoacyl tRNA synthase complex-interacting multifunctional protein 1) (UniProt Q12904 1-312, limits assumed)
T2 construct: also called p43
T2 sequence (looked up): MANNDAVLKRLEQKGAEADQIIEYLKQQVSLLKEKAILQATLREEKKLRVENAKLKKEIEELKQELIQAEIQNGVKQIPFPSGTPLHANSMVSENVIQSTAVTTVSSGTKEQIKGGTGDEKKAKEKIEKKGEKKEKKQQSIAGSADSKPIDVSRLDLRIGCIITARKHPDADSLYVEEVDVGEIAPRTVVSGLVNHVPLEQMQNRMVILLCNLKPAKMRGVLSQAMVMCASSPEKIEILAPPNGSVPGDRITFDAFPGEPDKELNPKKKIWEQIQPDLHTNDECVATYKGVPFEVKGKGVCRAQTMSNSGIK

[3] = molecular target: T3, GRS (glycyl tRNA synthetase) (UniProt P41250 55-739, limits assumed)
T3 sequence (looked up): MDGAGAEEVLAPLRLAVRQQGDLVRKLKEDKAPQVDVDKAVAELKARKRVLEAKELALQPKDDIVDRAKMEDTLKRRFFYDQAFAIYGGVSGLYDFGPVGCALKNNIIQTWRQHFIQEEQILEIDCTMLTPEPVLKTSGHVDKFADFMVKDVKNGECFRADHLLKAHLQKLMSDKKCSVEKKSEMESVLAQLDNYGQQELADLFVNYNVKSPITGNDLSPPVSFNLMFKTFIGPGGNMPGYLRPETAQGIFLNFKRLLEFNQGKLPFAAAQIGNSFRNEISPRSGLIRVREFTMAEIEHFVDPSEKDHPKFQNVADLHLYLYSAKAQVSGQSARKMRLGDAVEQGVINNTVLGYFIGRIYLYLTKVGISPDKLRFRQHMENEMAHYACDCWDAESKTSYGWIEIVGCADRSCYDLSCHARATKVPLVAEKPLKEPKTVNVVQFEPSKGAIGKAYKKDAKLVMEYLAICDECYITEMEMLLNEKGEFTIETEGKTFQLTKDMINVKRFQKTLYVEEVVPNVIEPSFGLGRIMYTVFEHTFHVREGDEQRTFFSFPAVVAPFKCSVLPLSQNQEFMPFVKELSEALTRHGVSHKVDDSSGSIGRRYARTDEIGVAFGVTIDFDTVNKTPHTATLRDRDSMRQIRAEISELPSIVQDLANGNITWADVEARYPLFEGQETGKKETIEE

[4] = molecular target: KRS (lysyl tRNA synthetase) (UniProt Q15046 1-597, limits assumed)
Sequence of KRS (lysyl tRNA synthetase) (Q15046 whole entry): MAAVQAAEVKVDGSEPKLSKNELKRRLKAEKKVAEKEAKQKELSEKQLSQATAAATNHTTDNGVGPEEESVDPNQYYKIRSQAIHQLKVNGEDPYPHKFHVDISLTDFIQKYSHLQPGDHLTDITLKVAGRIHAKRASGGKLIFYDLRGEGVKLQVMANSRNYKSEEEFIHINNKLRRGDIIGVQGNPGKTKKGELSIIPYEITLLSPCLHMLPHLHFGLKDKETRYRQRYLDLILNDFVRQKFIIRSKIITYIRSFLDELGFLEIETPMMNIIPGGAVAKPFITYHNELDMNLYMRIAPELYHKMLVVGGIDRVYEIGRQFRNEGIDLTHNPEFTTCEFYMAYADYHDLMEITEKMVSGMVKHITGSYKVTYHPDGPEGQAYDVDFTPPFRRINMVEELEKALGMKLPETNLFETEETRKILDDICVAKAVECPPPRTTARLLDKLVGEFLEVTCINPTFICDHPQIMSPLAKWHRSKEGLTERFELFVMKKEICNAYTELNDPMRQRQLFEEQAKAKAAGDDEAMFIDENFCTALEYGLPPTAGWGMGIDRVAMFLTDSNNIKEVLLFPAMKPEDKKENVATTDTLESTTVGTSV

- binding result [1]: no binding (tested: 500 ng/ml)
- binding result [2]: no binding (tested: 500 ng/ml)
- binding result [3]: no binding (tested: 500 ng/ml)
- binding result [4]: no binding (tested: 500 ng/ml)
B1: 1D4C3 (antibody, V domains shown)
VH: QAYLQQSGAELVRPGASVKMSCKASGYTFTSYNMHWVKQTPRQGLEWIGAIYPGNGDSSYNQKFKGKATLTVGKSSSTAYMQLSSLTSEDSAVYFCARWHYGSTYYAMDYWGQGTSVTVSS
VL: DIQMTQTTSSLSASLGDRVTISCRASQDISNYLNWFQQKPDGTVKLLIYYTSRLHSGVPSRFSGSGSGTDYSLTISNLEQEDFATYFCQQGKTLPHTFGGGTKLEIK
modifications: Antibody was biotin-attached in the ELISA of Example 5; site not stated.
notes: detected with anti-mouse HRP; also called 1D4C4

- binding result [1]: no binding (tested: 500 ng/ml)
- binding result [2]: no binding (tested: 500 ng/ml)
- binding result [3]: no binding (tested: 500 ng/ml)
- binding result [4]: no binding (tested: 500 ng/ml)
B2: 3B10H5 (antibody, V domains shown)
VH: B1 VH with M34L, E46K, S58T, G73D, T104S
VL: B1 VL with F36Y, Y49S, F83I, K92Y
modifications: Antibody was biotin-attached in the ELISA of Example 5; site not stated.
notes: detected with anti-mouse HRP

- binding result [1]: no binding (tested: 500 ng/ml)
- binding result [2]: no binding (tested: 500 ng/ml)
- binding result [3]: no binding (tested: 500 ng/ml)
- binding result [4]: no binding (tested: 500 ng/ml)
B3: 3B6 (antibody, V domains shown)
VH: EVQLLESGGGLVQPGGSLRLSCAASGFTFSSYSMSWVRQAPGKGLEWVSAISYDNGNTYYADSVKGRFTISRDNSKNTLYLQMNSLRAEDTAVYYCAKGATTQPHTSFDYWGQGTLVTVNS
VL: QSVLTQPPSASGTPGQRVTISCSGSSSNIGNNNVSWYQQLPGTAPKLLIYYNSHRPSGVPDRFSGSKSGTSASLAISGLRSEDEADYYCGTWDASLSAYVFGGGTKLTVL
modifications: Antibody was biotin-attached in the ELISA of Example 5; site not stated.

- binding result [1]: no binding (tested: 500 ng/ml)
- binding result [2]: no binding (tested: 500 ng/ml)
- binding result [3]: no binding (tested: 500 ng/ml)
- binding result [4]: no binding (tested: 500 ng/ml)
B4: 4H9 (antibody, V domains shown)
VH: EVQLLESGGGLVQPGGPLRLSCAASGFTFSNYAMSWVRQAPGKGLEWVSSIYPDGGGIYYADSVKGRFTISRDNSKNTLYLQMNSLRAEDTAVYYCARDLYPFGPDTFDYWGQGTLVTVSS
VL: B3 VL with N31S, N33D, S35T, Y51D, H54K, T91A, A94D, A98G
modifications: Antibody was biotin-attached in the ELISA of Example 5; site not stated.

- binding result [1]: no binding (tested: 500 ng/ml)
- binding result [2]: no binding (tested: 500 ng/ml)
- binding result [3]: no binding (tested: 500 ng/ml)
- binding result [4]: no binding (tested: 500 ng/ml)
B5: 4G4 (antibody, V domains shown)
VH: EVQLLESGGGLVQPGGSLRLSCAASGLTFSNYAMSWVRQAPGKGLEWVSWISPGDGNKYYADSVRGRFTVSRDNSKNTLYLQMNSLRAEDTAVYYCARVTIPCRRTTCYSANGMDVWGQGTLVTVSS
VL: B3 VL with N31S, N33S, S35T, Y51H, N52D, R55P, G90A, T91A, A94D, A98G
modifications: Antibody was biotin-attached in the ELISA of Example 5; site not stated.
